The first experiment concerns the target Aβ42 fibers (UniProt P05067). The experiment can be described thus: cell-based or functional assay.
In turn, “N1-N2-hIgG1-Fc fusion protein (SEQ ID NO:1) (from UniProt O34714 1-385)” gave an EC50, cellulose acetate filter retardation assay (disaggregation) of 100 nM.

The target in a further experiment is Aβ42 fibers (UniProt P05067). In words: ELISA, Aβ42 fibers on plate; IC50(variant)/IC50(SEQ ID NO: 3).
Chain of Aβ42 fibers (P05067 672-713 limits assumed): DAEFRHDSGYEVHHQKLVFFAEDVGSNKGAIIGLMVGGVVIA
“N1-N2-human IgG Fc fusion protein of SEQ ID NO: 3 with G48S”: the IC50 Relative to SEQ ID NO: 3 worked out at 1.2.

As for “N1-N2-human IgG Fc fusion protein of SEQ ID NO: 3 with T51H (from UniProt P69168 19-274)”, the IC50 Relative to SEQ ID NO: 3 was found to be 1.5.

Consider “N1-N2-human IgG Fc fusion protein of SEQ ID NO: 3 with T56H”, for which the IC50 Relative to SEQ ID NO: 3 stood at 0.77.

“N1-N2-human IgG Fc fusion protein of SEQ ID NO: 3 with W181K” yielded an IC50 Relative to SEQ ID NO: 3 of 0.3.

Substance “N1-N2-human IgG Fc fusion protein of SEQ ID NO: 3 with D178T” yielded an IC50 Relative to SEQ ID NO: 3 of 0.4.

As to “N1-N2-human IgG Fc fusion protein of SEQ ID NO: 3 with R140A”, the IC50 Relative to SEQ ID NO: 3 stood at 0.2.

With “N1-N2-human IgG Fc fusion protein of SEQ ID NO: 3 with M135H (from UniProt P69168 19-274)”, the IC50 Relative to SEQ ID NO: 3 turned out to be 0.1.

Turning to “N1-N2-human IgG Fc fusion protein of SEQ ID NO: 3 with M176G”, the IC50 Relative to SEQ ID NO: 3 is 0.3.

The substance “N1-N2-human IgG Fc fusion protein of SEQ ID NO: 3 with M135A (from UniProt P69168 19-274)” gave an IC50 Relative to SEQ ID NO: 3 of 0.4.

Substance “N1-N2-human IgG Fc fusion protein of SEQ ID NO: 3 with W181G” came in with an IC50 Relative to SEQ ID NO: 3 of 0.5.

In turn, “N1-N2-human IgG Fc fusion protein of SEQ ID NO: 3 with M135D (from UniProt P69168 19-274)” displayed an IC50 Relative to SEQ ID NO: 3 of 0.5.

On to “N1-N2-human IgG Fc fusion protein of SEQ ID NO: 3 with M176H”, for which the IC50 Relative to SEQ ID NO: 3 was determined as 0.4.

Consider “N1-N2-human IgG Fc fusion protein of SEQ ID NO: 3 with G48K (from UniProt P69168 19-274)”, for which the IC50 Relative to SEQ ID NO: 3 was determined as 1.1.

As to “N1-N2-human IgG Fc fusion protein of SEQ ID NO: 3 with M176R”, the IC50 Relative to SEQ ID NO: 3 turned out to be 0.2.

Turning to “N1-N2-human IgG Fc fusion protein of SEQ ID NO: 3 with M176N (from UniProt P69168 19-274)”, the IC50 Relative to SEQ ID NO: 3 was determined as 0.5.

Substance “N1-N2-human IgG Fc fusion protein of SEQ ID NO: 3 with G48H” showed an IC50 Relative to SEQ ID NO: 3 of 1.8.

“N1-N2-human IgG Fc fusion protein of SEQ ID NO: 3 with R140H”: the IC50 Relative to SEQ ID NO: 3 was found to be 0.2.

The substance “N1-N2-human IgG Fc fusion protein of SEQ ID NO: 3 with T56G” returned an IC50 Relative to SEQ ID NO: 3 of 0.1.

Take “N1-N2-human IgG Fc fusion protein of SEQ ID NO: 3 with M176K (from UniProt P69168 19-274)”: the IC50 Relative to SEQ ID NO: 3 came out at 0.2.

For “N1-N2-human IgG Fc fusion protein of SEQ ID NO: 3 with T51N”, the IC50 Relative to SEQ ID NO: 3 came to 0.5.

Consider “N1-N2-human IgG Fc fusion protein of SEQ ID NO: 3 with M135N (from UniProt P69168 19-274)”, for which the IC50 Relative to SEQ ID NO: 3 worked out at 0.3.

The substance “N1-N2-human IgG Fc fusion protein of SEQ ID NO: 3 with M135R (from UniProt P69168 19-274)” showed an IC50 Relative to SEQ ID NO: 3 of 0.1.

“N1-N2-human IgG Fc fusion protein of SEQ ID NO: 3 with T51R” had an IC50 Relative to SEQ ID NO: 3 of 2.

With “N1-N2-human IgG Fc fusion protein of SEQ ID NO: 3 with F141D”, the IC50 Relative to SEQ ID NO: 3 came to 0.2.

Substance “N1-N2-human IgG Fc fusion protein of SEQ ID NO: 3 with T51P” came in with an IC50 Relative to SEQ ID NO: 3 of 0.2.

Consider “N1-N2-human IgG Fc fusion protein of SEQ ID NO: 3 with R140D”, for which the IC50 Relative to SEQ ID NO: 3 was determined as 0.3.

“N1-N2-human IgG Fc fusion protein of SEQ ID NO: 3 with W181H” showed an IC50 Relative to SEQ ID NO: 3 of 0.87.

“N1-N2-human IgG Fc fusion protein of SEQ ID NO: 3 with D178G (from UniProt P69168 19-274)” returned an IC50 Relative to SEQ ID NO: 3 of 0.2.

“N1-N2-human IgG Fc fusion protein of SEQ ID NO: 3 with T51Q” displayed an IC50 Relative to SEQ ID NO: 3 of 0.8.

“N1-N2-human IgG Fc fusion protein of SEQ ID NO: 3 with G48R (from UniProt P69168 19-274)” gave an IC50 Relative to SEQ ID NO: 3 of 1.9.

Regarding “N1-N2-human IgG Fc fusion protein of SEQ ID NO: 3 with F141E (from UniProt P69168 19-274)”, the IC50 Relative to SEQ ID NO: 3 worked out at 0.2.

As for “N1-N2-human IgG Fc fusion protein of SEQ ID NO: 3 with Y54H”, the IC50 Relative to SEQ ID NO: 3 amounted to 0.3.

For the substance “N1-N2-human IgG Fc fusion protein of SEQ ID NO: 3 with T51K”, the IC50 Relative to SEQ ID NO: 3 stood at 2.5.

Substance “N1-N2-human IgG Fc fusion protein of SEQ ID NO: 3 with R140E” returned an IC50 Relative to SEQ ID NO: 3 of 0.3.

In turn, “N1-N2-human IgG Fc fusion protein of SEQ ID NO: 3 with R140G (from UniProt P69168 19-274)” registered an IC50 Relative to SEQ ID NO: 3 of 0.2.

The substance “N1-N2-human IgG Fc fusion protein of SEQ ID NO: 3 with D178Q” showed an IC50 Relative to SEQ ID NO: 3 of 0.6.

“N1-N2-human IgG Fc fusion protein of SEQ ID NO: 3 with T56R (from UniProt P69168 19-274)” showed an IC50 Relative to SEQ ID NO: 3 of 0.8.

“N1-N2-human IgG Fc fusion protein of SEQ ID NO: 3 with G48T”: the IC50 Relative to SEQ ID NO: 3 was 1.

On to “N1-N2-human IgG Fc fusion protein of SEQ ID NO: 3 with Y54P”, for which the IC50 Relative to SEQ ID NO: 3 came to 0.07.

Take “N1-N2-human IgG Fc fusion protein of SEQ ID NO: 3 with S173P”: the IC50 Relative to SEQ ID NO: 3 worked out at 0.4.

For the substance “N1-N2-human IgG Fc fusion protein of SEQ ID NO: 3 with T51G (from UniProt P69168 19-274)”, the IC50 Relative to SEQ ID NO: 3 amounted to 0.8.

Regarding “N1-N2-human IgG Fc fusion protein of SEQ ID NO: 3 with D178S”, the IC50 Relative to SEQ ID NO: 3 was found to be 0.3.

In the case of “N1-N2-human IgG Fc fusion protein of SEQ ID NO: 3 with M135G”, the IC50 Relative to SEQ ID NO: 3 is 0.2.

The substance “N1-N2-human IgG Fc fusion protein of SEQ ID NO: 3 with S173G (from UniProt P69168 19-274)” showed an IC50 Relative to SEQ ID NO: 3 of 0.2.

For the origin of these results see US20160115223A1.
